{
  "source": "paper PMC7745063",
  "about": "“Investigating the reaction and substrate preference of indole-3-acetaldehyde dehydrogenase from the plant pathogen Pseudomonas syringae PtoDC3000” (Bioscience Reports, 2020)",
  "key": {"[1]": {"target": "the molecule itself", "test": "crystal structure; AldA C302A with IAA and NAD+, hanging drop at 4°C, 24% PEG-1000, 100 mM Tris/HCl pH 7.0; 2.85 Å; eight monomers in the asymmetric unit"}, "[2]": {"target": "the molecule itself", "test": "SEC"}},
  "data": [
    {"protein": "AldA C302A mutant (enzyme, source: E. coli BL21 (DE3), purified (Ni-NTA, Superdex-200 size-exclusion)) MTTLTRADWEQRAQNLKIEGRAFIQGEYTAAASGETFDCISPVDGRLLAKVASCDAADAQRAVESARSAFDSGAWSRLAPAKRKATMIRFAGLLEQNAEELALLETLDMGKPISDSLGVDIPGGARALSWSGEAIDKLYDEVAATPHDQLGLVTREPVGVVAAIVPWNFPLMMACWKLGPALSTGNSVVLKPSEKSPLTAIRIAQLAIEAGIPAGVLNVLPGYGHTVGKALALHMDVDTVVFTGSTKIAKQLMIYAGESNMKRVWLEAGGKSPNIVFADAPDLQAAADSAASAIAFNQGEVATAGSRLLVERSIKDRFLPMVIEALGTWKPGNPLDPATNVGALVDTQQMNTVLSYIAAGHTDGARLVAGGKQILQETGGTYVEPTIFDGVNNAMRIAQEEIFGPVLSVLTFDTAEEAIQIANDTPYGLAAAVWTANLSKAHLTARALRAGSVWVNQYDGGDMTAPFGGFKQSGNGRDKSLHAFDKYTELKSTWIKL", "values": [
      {"measurement": "stoichiometry N", "setting": "[1]", "result": 4}
    ]},
    {"protein": "AldA E267Q mutant (enzyme, source: E. coli BL21 (DE3), purified (Ni-NTA, Superdex-200 size-exclusion)) MTTLTRADWEQRAQNLKIEGRAFIQGEYTAAASGETFDCISPVDGRLLAKVASCDAADAQRAVESARSAFDSGAWSRLAPAKRKATMIRFAGLLEQNAEELALLETLDMGKPISDSLGVDIPGGARALSWSGEAIDKLYDEVAATPHDQLGLVTREPVGVVAAIVPWNFPLMMACWKLGPALSTGNSVVLKPSEKSPLTAIRIAQLAIEAGIPAGVLNVLPGYGHTVGKALALHMDVDTVVFTGSTKIAKQLMIYAGESNMKRVWLQAGGKSPNIVFADAPDLQAAADSAASAIAFNQGEVCTAGSRLLVERSIKDRFLPMVIEALGTWKPGNPLDPATNVGALVDTQQMNTVLSYIAAGHTDGARLVAGGKQILQETGGTYVEPTIFDGVNNAMRIAQEEIFGPVLSVLTFDTAEEAIQIANDTPYGLAAAVWTANLSKAHLTARALRAGSVWVNQYDGGDMTAPFGGFKQSGNGRDKSLHAFDKYTELKSTWIKL", "values": [
      {"measurement": "stoichiometry N", "setting": "[2]", "result": 4}
    ]},
    {"protein": "AldA indole-3-acetaldehyde dehydrogenase from Pseudomonas syringae strain PtoDC3000, wild-type (enzyme, also called wild-type AldA; WT; source: E. coli BL21 (DE3), purified (Ni-NTA, Superdex-200 size-exclusion)) MTTLTRADWEQRAQNLKIEGRAFIQGEYTAAASGETFDCISPVDGRLLAKVASCDAADAQRAVESARSAFDSGAWSRLAPAKRKATMIRFAGLLEQNAEELALLETLDMGKPISDSLGVDIPGGARALSWSGEAIDKLYDEVAATPHDQLGLVTREPVGVVAAIVPWNFPLMMACWKLGPALSTGNSVVLKPSEKSPLTAIRIAQLAIEAGIPAGVLNVLPGYGHTVGKALALHMDVDTVVFTGSTKIAKQLMIYAGESNMKRVWLEAGGKSPNIVFADAPDLQAAADSAASAIAFNQGEVCTAGSRLLVERSIKDRFLPMVIEALGTWKPGNPLDPATNVGALVDTQQMNTVLSYIAAGHTDGARLVAGGKQILQETGGTYVEPTIFDGVNNAMRIAQEEIFGPVLSVLTFDTAEEAIQIANDTPYGLAAAVWTANLSKAHLTARALRAGSVWVNQYDGGDMTAPFGGFKQSGNGRDKSLHAFDKYTELKSTWIKL", "values": [
      {"measurement": "stoichiometry N", "setting": "[2]", "result": 4}
    ]},
    {"protein": "AldA E267A mutant (enzyme, source: E. coli BL21 (DE3), purified (Ni-NTA, Superdex-200 size-exclusion)) MTTLTRADWEQRAQNLKIEGRAFIQGEYTAAASGETFDCISPVDGRLLAKVASCDAADAQRAVESARSAFDSGAWSRLAPAKRKATMIRFAGLLEQNAEELALLETLDMGKPISDSLGVDIPGGARALSWSGEAIDKLYDEVAATPHDQLGLVTREPVGVVAAIVPWNFPLMMACWKLGPALSTGNSVVLKPSEKSPLTAIRIAQLAIEAGIPAGVLNVLPGYGHTVGKALALHMDVDTVVFTGSTKIAKQLMIYAGESNMKRVWLAAGGKSPNIVFADAPDLQAAADSAASAIAFNQGEVCTAGSRLLVERSIKDRFLPMVIEALGTWKPGNPLDPATNVGALVDTQQMNTVLSYIAAGHTDGARLVAGGKQILQETGGTYVEPTIFDGVNNAMRIAQEEIFGPVLSVLTFDTAEEAIQIANDTPYGLAAAVWTANLSKAHLTARALRAGSVWVNQYDGGDMTAPFGGFKQSGNGRDKSLHAFDKYTELKSTWIKL", "values": [
      {"measurement": "stoichiometry N", "setting": "[2]", "result": 4}
    ]}
  ]
}
